The test system of this data set is MS2 coat protein. Put plainly: apparent KD of MS2 coat protein; designed switch direction (-1 OFF switch, 1 ON switch): 1; higher = weaker reporter binding. The method, boiled down: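 An oligonucleotide input, 200 uM small-molecule ligand, or no input was present during titration of SNAP-549-labelled MS2 coat protein, which was doubled from 0.7 or 1.5 nM to 3 µM. Designed RNA switches had been transcribed on Illumina chips by stalled E. coli RNA polymerase. Apparent KD per design is the median over clusters of curves fitted to normalised cluster fluorescence.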

[1] abbreviates: input ligand: microRNA oligo, concentration not stated.
The mark [2] stands for this setting: Eterna round: R95, input ligand: microRNA oligo, concentration not stated.

Consider “GAGUGGUAGAGAGGAUAUGCAUUGUUAUUAAAUGCAGAAGGUUUUAACAUGAGGAUCACCCAUGUAGGACUAUUCCUGUGUUUC [Parity 66 - Jieux - Same State NG 1] (Eterna round: R96, puzzle: Same State NG 1)”, for which the “apparent KD of MS2 coat protein” value under setting [1] came out at 10.8 nM.

Take “GCAGGACAUGAGGAUCACCCAUGUUCAAAAUAUUGAGGAUAUGGAUACGGUAUAUCCGAACCAGAAGGCAACCUGC [SS1 Teenbexe 22] (puzzle: Same State 1)”: under setting [2], the “apparent KD of MS2 coat protein” value is 16.6 nM.

Take “GCAUGAGAGAUAGGAUAUCGUGUACCUACAUGUGACAUGAGGAUCACCCAUGUGGUAAGUAUGAGCGAGAAGGAUCCGAUAUGU [salish99_SSNG2_r04_1002] (Eterna round: R96, puzzle: Same State NG 2)”: the “apparent KD of MS2 coat protein” value runs as follows: (input ligand: FMN 200 uM) 26.6 nM; under setting [1], 44.4 nM; (input ligand: none) 60.9 nM.

On to “GCAUGGUUACAUGCUAUACAUGAGGAUCACCCAUGUGAUGGGAAGGAUAUGUCCUCAAUUAGUGGACAGAAGGUCCAAACAUUU [Fiskers NG3ss - 1] (Eterna round: R96, puzzle: Same State NG 3)”, for which the “apparent KD of MS2 coat protein” value reads like this: (input ligand: FMN 200 uM) 136 nM; under setting [1], 234 nM; (input ligand: none) 939 nM.

Consider “GCCAUCGCAUGAGGAUAUGGCACCGUUUCGGUGCCAGAAGGCAUGUCAAAUGACAUGAGGAUCACCCAUGUAGUUAAGAUGGCA [JL Fiskers NG1ss - 33 mod 9] (Eterna round: R96, puzzle: Same State NG 1)”, for which the “apparent KD of MS2 coat protein” value by setting is: (input ligand: FMN 200 uM) 29.2 nM; under setting [1], 417 nM; (input ligand: none) 542 nM.

With “GCCAUCGUAUGAGGAUAUGGCACCGUUUCGGUGCCAGAAGGCAUGUCAAUUGACAUGAGGAUCACCCAUGUAUUUUCGAUGGCA [JL Fiskers NG1ss - 33 mod 11] (Eterna round: R96, puzzle: Same State NG 1)”, the “apparent KD of MS2 coat protein” value reads like this: (input ligand: FMN 200 uM) 74.6 nM; under setting [1], 385 nM; (input ligand: none) 779 nM.

Take “GCCAUCGUGUGAGGAUAUGGCACCGUUUCGGUGCCAGAAGGCAUGUCAAUUGACAUGAGGAUCACCCAUGUAUUAGCGAUGGCA [JL Fiskers NG1ss - 33 mod 3] (Eterna round: R96, puzzle: Same State NG 1)”: the “apparent KD of MS2 coat protein” value worked out at 159 nM (input ligand: FMN 200 uM), 292 nM under setting [1] and 988 nM (input ligand: none).

Take “GCCGGCUGGUGAGGAUAUGGCGCCUUAUUGGUGCCAGAAGGCAUGUCAAUUGACAUGAGGAUCACCCAUGUGUUGUCGUUGGCG [salish99_SSNG1_r04_610] (Eterna round: R96, puzzle: Same State NG 1)”: the “apparent KD of MS2 coat protein” value stood at 695 nM (input ligand: FMN 200 uM), 357 nM under setting [1] and 353 nM (input ligand: none).

On to “GCGAAAGCCGUAGGAUAUGUAGGAUAUGGCGAGAGCUAAGCUUGGAAGUCACUUCAGCCAGAAGGACAGAAGGACGCCGAAAGG [pwkr ssNG2 2FMN + F9.15] (Eterna round: R96, puzzle: Same State NG 2)”, for which the “apparent KD of MS2 coat protein” value was found to be 1410 nM (input ligand: FMN 200 uM), 387 nM under setting [1] and 46.2 nM (input ligand: none).

With “GCGAGCGUACUUGCAGACAUGAGGAUCACCCAUGUAAAUGGGAAGGAUAUGGUACCGUUUCGGUACCAGAAGGUCCUAAGUGAU [salish99_SSNG3_r04_301] (Eterna round: R96, puzzle: Same State NG 3)”, the “apparent KD of MS2 coat protein” value runs as follows: (input ligand: FMN 200 uM) 665 nM; under setting [1], 1080 nM; (input ligand: none) 1130 nM.

For “GCGCAGCCGGGUGAGGAUAUCGGUGGUAAAACAUGAGGAUCACCCAUGUCCGAAGCUCGGACUUCCGAGAAGGCGCCCAGCUGCA [Erisin] (puzzle: Same State 2)”, the “apparent KD of MS2 coat protein” value under setting [2] turned out to be 61.2 nM.

Turning to “GCUAGAAAUAAAGCCAACAUGAGGAUCACCCAUGUAUGUUGGCAGGAUAUCGUUUGCAAAGCAAACGAGAAGGGCUAAACUAGC [Mat - Same State NG 3 - JL Mod - D5] (Eterna round: R96, puzzle: Same State NG 3)”, the “apparent KD of MS2 coat protein” value runs as follows: (input ligand: FMN 200 uM) 141 nM; under setting [1], 138 nM; (input ligand: none) 147 nM.

As to “GCUAGGAAUAAAGCCAACAUGAGGAUCACCCAUGUAUGUUGGUAGGAUAUCGUUUGCUUUGCAAACGAGAAGGGCUAACCUAGC [JL SSNG3 1.24] (Eterna round: R96, puzzle: Same State NG 3)”, the “apparent KD of MS2 coat protein” value is, setting by setting: (input ligand: FMN 200 uM) 74.6 nM; under setting [1], 64.5 nM; (input ligand: none) 67.5 nM.

Turning to “GCUAGGAUAUGCAGAGGAUCACCCUGUAGAAGGAGCAUUAGCUAGGAUAUGCAGAGGAUCACCCUGUAGAAGGAGCACUACUCU [pwkr ssNG3 DX 2xF5 +2xFMN.1] (Eterna round: R96, puzzle: Same State NG 3)”, the “apparent KD of MS2 coat protein” value stood at 445 nM (input ligand: FMN 200 uM), 205 nM under setting [1] and 248 nM (input ligand: none).

Take “GCUAGUAUUAUUGCUAACAUGAGGAUCACCCAUGUAUGUUGGCAGGAUAUCGUUUGCUUUGCAAACGAGAAGGGCUAAACUAGC [JL SSNG3 1.05] (Eterna round: R96, puzzle: Same State NG 3)”: the “apparent KD of MS2 coat protein” value (input ligand: FMN 200 uM) was found to be 25.8 nM, the “apparent KD of MS2 coat protein” value under setting [1] was found to be 65.4 nM and the “apparent KD of MS2 coat protein” value (input ligand: none) was determined as 71.7 nM.

Regarding “GCUCGAUGAAAGUCCUACAUGAGGAUCACCCAUGUACGUGGGCAGGAUAUCUACAUGCAGAGUGUAGAGAAGGGCCCAUCGAGC [SameState NG3 #60] (Eterna round: R96, puzzle: Same State NG 3)”, the “apparent KD of MS2 coat protein” value stood at 18.6 nM (input ligand: FMN 200 uM), 22.6 nM under setting [1] and 34.9 nM (input ligand: none).

In the case of “GCUCGAUGAUAGGCCUACAUGAGGAUCACCCAUGUAAGUGGGCAGGAUAUCUAAAUGCAGAAUGUAGAGAAGGGCCCGUCGAGC [SameState NG3 #54] (Eterna round: R96, puzzle: Same State NG 3)”, the “apparent KD of MS2 coat protein” value (input ligand: FMN 200 uM) was 612 nM, the “apparent KD of MS2 coat protein” value under setting [1] is 239 nM and the “apparent KD of MS2 coat protein” value (input ligand: none) stood at 1460 nM.

As for “GCUCGAUGAUAGGCCUACAUGAGGAUCACCCAUGUGACUGGGCAGGAUAUCUAAAUGCAGAAUGUAGAGAAGGGCCCGUCGAGC [SameState NG3 #52] (Eterna round: R96, puzzle: Same State NG 3)”, the “apparent KD of MS2 coat protein” value worked out at 269 nM (input ligand: FMN 200 uM), 69.5 nM under setting [1] and 409 nM (input ligand: none).

Take “GCUCGGACGAUGACCCACAUGAGGAUCACCCAUGUGCUUGGGCAGGAUAUCUAGAUUAAGGAUGUAGAGAAGGGUCGACCGAGC [SameState NG3 #29] (Eterna round: R96, puzzle: Same State NG 3)”: the “apparent KD of MS2 coat protein” value runs as follows: (input ligand: FMN 200 uM) 345 nM; under setting [1], 90.3 nM; (input ligand: none) 211 nM.

As to “GCUCGUAUCACGACCGACAUGAGGAUCACCCAUGUAUGUUGGUAGGAUAUCUAUAUUAAGGAUAUAGAGAAGGGCCGAACGAGC [SameState NG3 #14] (Eterna round: R96, puzzle: Same State NG 3)”, the “apparent KD of MS2 coat protein” value runs as follows: (input ligand: FMN 200 uM) 23.5 nM; under setting [1], 24.8 nM; (input ligand: none) 30.1 nM.

(Values after the supplement of paper PMC9170038.)
